Earlier results on one substance are cited in publication PMC4303049.

For series [1], the target named is PACS-2 FBR (Homo sapiens) (UniProt Q86VP3).
The target of series [2] is PACS-1 FBR (Homo sapiens) (UniProt Q6VY07).
PACS-1 FBR (Homo sapiens), sequence (Q6VY07 117-266): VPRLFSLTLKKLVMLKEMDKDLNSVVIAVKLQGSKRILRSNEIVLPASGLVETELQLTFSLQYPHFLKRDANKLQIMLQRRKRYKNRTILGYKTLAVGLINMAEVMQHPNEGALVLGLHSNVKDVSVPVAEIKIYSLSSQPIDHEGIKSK

PACS-2 FBR (Homo sapiens), sequence (Q86VP3 37-186): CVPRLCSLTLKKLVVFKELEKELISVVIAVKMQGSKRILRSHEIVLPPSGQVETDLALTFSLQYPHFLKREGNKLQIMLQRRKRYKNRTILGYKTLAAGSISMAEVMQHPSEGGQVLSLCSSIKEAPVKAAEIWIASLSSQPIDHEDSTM

With “Polycystin-2 phosphorylated acidic cluster (from UniProt Q13563)”, the values for the Kd in series [1] and in series [2] were 15.4 µM and 14.8 µM, respectively.
